Measured values as given in article PMC12120882.

B1: SlFLS promoter E-box probe 2 (dsDNA)
DNA 1: ATTATACATACAAAATATCAATTGCAAGCTCTGATTTTATGT
DNA 2: ACATAAAATCAGAGCTTGCAATTGATATTTTGTATGTATAAT
B2: SlCHS1 promoter E-box probe 2 (dsDNA)
DNA 1: CTAAAAAAGTTGCTCAAACACGTGAAGACTAGCTACCGCCTA
DNA 2: TAGGCGGTAGCTAGTCTTCACGTGTTTGAGCAACTTTTTTAG
B3: SlCHS1 promoter E-box probe 3 (dsDNA)
DNA 1: TTTATACAGTTCTCTGCCCAAGTGTCTTTCTCTTTCTTGTTT
DNA 2: AAACAAGAAAGAGAAAGACACTTGGGCAGAGAACTGTATAAA
B4: SlFLS promoter E-box probe 3 (dsDNA)
DNA 1: TAAAAAGCTGTTTATCAGCACTTGTTTGCCAAACACATCAAC
DNA 2: GTTGATGTGTTTGGCAAACAAGTGCTGATAAACAGCTTTTTA
B5: SlCHS1 promoter E-box probe 1 (dsDNA)
DNA 1: AAGCCATTTTCTCTTCTTCACTTGCTAAAATTTGTATAATAT
DNA 2: ATATTATACAAATTTTAGCAAGTGAAGAAGAGAAAATGGCTT

Biological target: SlbHLH95 (GST fusion) (Solanum lycopersicum, UniProt A0A3Q7IJR5 1-380)
Test: EMSA

Binder	binding result
B1	binds
B2	no binding
B3	no binding
B4	no binding
B5	no binding
